Results on two substances are retold here after patent US12404607.

Common to all, as to assay: ELISA, antigen coated at 2 ug/mL
On the technique in general: In an ELISA, binding on a coated surface is turned into a signal by an enzyme label.

For experiment [1], the target named is CoV-2 RBD (N354D, D364Y) (SARS-CoV-2) (UniProt P0DTC2).
For experiment [2], the target named is CoV-2 S (D614G) (SARS-CoV-2) (UniProt P0DTC2).
Experiment [3] concerns the target CoV-2 RBD (V367F) (SARS-CoV-2) (UniProt P0DTC2).
In experiment [4] the target is CoV-2 RBD (W436R) (SARS-CoV-2) (UniProt P0DTC2).
The target in experiment [5] is CoV-2 RBD (N354D) (SARS-CoV-2) (UniProt P0DTC2).
The target of experiment [6] is CoV-2 S (R683A, R685A) (SARS-CoV-2) (UniProt P0DTC2).

As usually defined, the EC50 is the concentration that produces a half-maximal response. Low readings indicate an effect from little substance, high ones a need for much substance.

With “SARS CoV-2 mAb [SAD-S35] (Acro Biosystems) (antibody)”, the EC50 in experiment [1] is 0.05 mg/L; in experiment [2], 0.03 mg/L; in experiment [3], 0.04 mg/L; in experiment [4] it was 0.04 mg/L; in experiment [5], 0.04 mg/L; in experiment [6] it was 0.05 mg/L.
Regarding “rCIG (recombinant coronavirus-2 immune globulin; recombinant anti-coronavirus 19 hyperimmune gammaglobulin)”, the EC50 was found to be 0.08 mg/L in experiment [1]; 0.05 mg/L in experiment [2]; 0.07 mg/L in experiment [3]; 0.07 mg/L in experiment [4]; 0.07 mg/L in experiment [5]; 0.09 mg/L in experiment [6].
